In PMC12254369, “Small molecule disruption of RARα/NCoR1 interaction inhibits chaperone-mediated autophagy in cancer” (EMBO Molecular Medicine, 2025):
Values belong to the molecule of their own block, whether it stands above or below them. Ends that are not written are not given here. * marks the point of attachment. FITC = O=C1OC2(c3ccc(O)cc3Oc3cc(O)ccc32)c2ccc(NC(=S)*)cc21; Ahx = NCCCCCC(=O)O

Key:
[1] = target: T1, His-tagged RARα LBD with FITC-SRC (Homo sapiens, UniProt P10276); experiment: TR-FRET coactivator peptide recruitment; assay type: binding; conditions: 3 nM His-RARα LBD, 50 nM FITC-SRC, 5 mM DTT, pH 7.4, 1 h; agonist
T1 construct: gene RARA; LBD residues 176-462 with His tag
T1 sequence (P10276 176-462): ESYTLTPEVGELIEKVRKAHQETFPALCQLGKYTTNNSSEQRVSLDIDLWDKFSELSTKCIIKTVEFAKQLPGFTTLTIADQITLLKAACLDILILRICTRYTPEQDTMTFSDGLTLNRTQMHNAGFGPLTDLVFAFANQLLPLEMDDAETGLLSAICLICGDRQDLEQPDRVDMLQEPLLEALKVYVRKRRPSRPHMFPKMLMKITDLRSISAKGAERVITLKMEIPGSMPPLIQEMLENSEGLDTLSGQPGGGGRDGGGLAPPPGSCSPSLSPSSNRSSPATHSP

[2] = target: T2, Recombinant RARα LBD (ligand binding domain of human retinoic acid receptor alpha, residues 176-462, … (human, UniProt P10276 176-462)); experiment: AlphaScreen or HTRF; TR-FRET: 3 nM His-tagged RARα LBD, 0.5 nM anti-6HIS Tb cryptate (donor), 50 nM FITC-SRC (acceptor); 1x PBS, 0.02% Pluronic F-127, 5 mM DTT, pH 7.4; 1 h; increasing concentrations of CIM7, ATRA or AM580; conditions: both partners purified
T2 construct: The His tag is detected by the anti-6HIS Tb cryptate antibody in the TR-FRET assay; also called His-tagged RARα LBD; source: E. coli BL21(DE3), purified (Ni-NTA, Superdex 200 gel filtration); not shown: His tag, N-terminal, kept
T2 sequence (looked up): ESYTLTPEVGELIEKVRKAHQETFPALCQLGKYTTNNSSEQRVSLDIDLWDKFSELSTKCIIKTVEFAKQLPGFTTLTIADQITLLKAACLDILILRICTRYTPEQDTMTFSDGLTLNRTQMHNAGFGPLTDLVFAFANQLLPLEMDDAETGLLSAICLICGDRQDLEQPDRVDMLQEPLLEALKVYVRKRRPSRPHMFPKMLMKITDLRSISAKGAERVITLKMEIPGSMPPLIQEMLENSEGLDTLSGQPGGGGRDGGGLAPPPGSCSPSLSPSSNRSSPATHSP

[3] = target: T2, Recombinant RARα LBD (ligand binding …); experiment: fluorescence polarisation; RARα LBD serially diluted from 50 µM, 5 nM FITC-NCoR1 peptide; 20 mM HEPES, 150 mM NaCl, 5 mM DTT, pH 7.5; read at 1 h; with DMSO, 25 µM CIM7, 10 µM ATRA or AM580; conditions: both partners purified

Molecule: CC1=C(/C=C/C(C)=C/C=C/C(C)=C/C(=O)O)C(C)(C)CCC1 [ATRA, All-trans retinoic acid]
TR-FRET coactivator peptide recruitment [1]: rather enhance binding of the coactivator, SRC

binding result [2]: binds
B1: FITC-SRC peptide (FITC-Ahx-RHKILHRLLQEGS) (peptide)
peptide: {FITC-Ahx}-RHKILHRLLQEGS
notes: source: synthetic peptide (GenScript, purity >95%)

binding result [3]: binds
B2: FITC-NCoR1 peptide (FITC-Ahx-RLITLADHICQIITQDFAR) (peptide)
peptide: {FITC-Ahx}-RLITLADHICQIITQDFAR
notes: peptide of nuclear receptor corepressor 1 (NCoR1); also called NCoR1 fluorescent peptide; source: synthetic peptide (GenScript, purity >95%)
